This note sets out measurements from patent US20110020833A1.

Where no end group is shown, it is not given here.

This experiment concerns the target BSA+oligo-Lys conjugate (oligo-Lys peptide K14C coupled to bovine serum albumin) (bovine) (UniProt P02769). The experiment is described as follows: MACN-labeled peptide in plasma matrix, 30 min in tubes coated with oligo-Lys-BSA to which the oligo-Asp-anti-PCT antibody was bonded; luminometer.
UniProt P02769, sequence (P02769 25-607, stated change not applied): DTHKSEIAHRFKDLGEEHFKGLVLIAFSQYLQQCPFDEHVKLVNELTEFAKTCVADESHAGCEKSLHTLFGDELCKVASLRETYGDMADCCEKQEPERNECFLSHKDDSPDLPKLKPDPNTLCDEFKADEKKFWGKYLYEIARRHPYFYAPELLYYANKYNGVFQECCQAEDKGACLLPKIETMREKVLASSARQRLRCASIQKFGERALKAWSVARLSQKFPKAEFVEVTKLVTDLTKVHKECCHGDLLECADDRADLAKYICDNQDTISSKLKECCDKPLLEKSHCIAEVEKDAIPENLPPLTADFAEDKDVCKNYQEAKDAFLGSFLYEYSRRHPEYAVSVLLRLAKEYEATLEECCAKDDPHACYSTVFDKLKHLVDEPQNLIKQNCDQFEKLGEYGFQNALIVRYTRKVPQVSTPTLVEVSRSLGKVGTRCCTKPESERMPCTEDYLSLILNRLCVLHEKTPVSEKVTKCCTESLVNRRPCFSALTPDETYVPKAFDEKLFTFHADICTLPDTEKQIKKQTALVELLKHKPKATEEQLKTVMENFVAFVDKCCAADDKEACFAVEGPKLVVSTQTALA
Consider ELRMSSSYPTGLADVKAGPAQTLIRPQDMKGASRSPEDSSPDAARIRV (also: MACN acridinium label, site not given here) [MACN-labeled Peptide 45-92 (derived from pro-adrenomedullin)], for which the percentage of non-specific binding relative to the total activity is 2.9%.
Next, SSEEHLRQTRSETMRNSVKSSFHDPKLKGKPSRERYVTHNRAHW (also: MACN acridinium label, site not given here) [MACN-labeled peptide PSW44 (derived from proEndothelin)]: 3%.
PEVPPWTGEVSPAQRDGGALGGGGRGPWDSSDRSALLKSKL (also: MACN acridinium label, site not given here) [MACN-labeled peptide PPL41 (derived from NT-proANP)] had a percentage of non-specific binding relative to the total activity of 3.1%.
In the case of ATQLDGPAGALLLRLVQLAGAPEPFEPAQPDAY (also: MACN acridinium label, site not given here) [MACN-labeled peptide PAY33 (derived from copeptin)] it was 6.5%.
